{"source": "the DeepSol protein solubility set"}
{"test": "soluble on expression in E. coli; label from the status in PepcDB or PDB records"}
{"sequence": "DGDRLRQFLENNKKVLRFWCVWDERTTMYGDRRPYVLHYYLEDDSVEVLEINENNSGRDPFPVFLKRGPLPKVAVKTNTTLNPKFRKDQCYNAGDFRLGLFINVLGRDFYLHDADTFTKQWYKDNLGYTDEE", "soluble on expression in E. coli": "not soluble"}
{"sequence": "MANNVTFWFDVSCPFCWITSRWIKEVEKVRDISVTWVPMSLSVLNDGRDELPQDYKDKMKANWGPARVFAAVATEQPDRVDALYTAMGTRIHNQGEGGKQGYAAYDAIIADALEDVGLPASYAAVANTDTWDNALAAFHATAMDAVGNDVGTPVVKLGDTAFFGPVLTRIPRGEEAGMLFDASFQLAAYPHFFEIKRTRTESPQFD", "soluble on expression in E. coli": "not soluble"}
{"sequence": "MGSDKIHHHHHHMSEQKEDLFKPVGEAAAEVEDESIAEQNKANDGVKLTGAQDAMGHPVQEIESLCMNCGKNGTTRLLLTSIPYFREIIIMSFDCPHCGFKNCEIQPASQIQEKGSRYVLKVECREDFNRQVIKSETATCKFVELDIEIPAKRGQLTTVEGLLSEMIDDLSQDQEMRKSIDEALYKKIDDFIQKVKSYINCEPNTIPITFILDDPAGNSWIEYKPGEPQHKWSHTQYVRTDEQNVQVGIITRDQLEQRRQEQLKQLANRERNPSESVKVGSANPQFLSDATDIENFNNEVQTFRASCPSCTQECETHMKPVNIPHFKEVIIMSTVCDHCGYKSNEVKTGGAIPDKGRRITLYCDDAADLSRDILKSETCSMVIPELHLDIQEGTLGGRFTTLEGLLRQVYEELESRIFTQTSDSMDEATKARWVEFFAKLKEAIAGKVKFTVIMEDPLAGSYIQNVYAPDPDPNMTIEDYERTKEQNEDLGLSDIKVE", "soluble on expression in E. coli": "not soluble"}
{"sequence": "AKSVVSHSLTTLGVEVSKPPPQHDKIEASEPSFPLHESILKVVEEEWQQIDRQLPSVACRYPVSSIEAARILSVPKVDDEILGFISEATPAAATQASSTESCDKHLDLALCRSYEAAASALQIAAHTAFVAKSLQADISQAAQIINSDPSDAQQALRILNRTYDAASYLCDAAFDEVRMSACAMGSSTMGRRYLWLKDCKISPASKNKLTVAPFKGGTLFGGEVHKVIKKRGNKQ", "soluble on expression in E. coli": "soluble"}
{"sequence": "LMENGPEFKIEVSILKDVATVMIDTTGSSLFKRGYRTEKGGAPIKENMAAAILQLSNWYPDKPLIDPTCGSGTFCIEAVMIARKMAPGLRRSFAFEEWNWISDRLIQEVRTEAAKKVDRELELDIMGCDIDARMVEIAKANAQVAGVAGDITFKQMRVQDLRSDKINGVIISNPPYGERLSDDAGVTKLYAEMGQVFAPLKTWSKFILTSDEAFESKYGSQADKKRKLYNGTLKVDLYQYFGQRVKRQEVK", "soluble on expression in E. coli": "not soluble"}
{"sequence": "SLTTFATEWEKQLELYPEEYRKAYRRVKRASEILLREPEPQVGLTPKEVIWTKNKTKLYRYIPKQEKTQRVPILLIYALINKPYIMDLTPGNSLVEYLVDRGFDVYMLDWGTFGLEDSHLKFDDFVFDYIAKAVKKVMRTAKSDE", "soluble on expression in E. coli": "soluble"}
{"sequence": "MGLEDDFLLEDADDEKTVEFIKNYLPQELKEKFEDDELYYFLDLIDEYYSESGILDAQPDNDGYVNIDLEEVVAYIVKEAKKDEMGEYDPEEILFVVQGEMEYGNSLGQVD", "soluble on expression in E. coli": "not soluble"}
{"sequence": "MYKTFYSLSREPFAKETDPSEAYQGAAFQEALRALEYVKRTRGIGLLIGEPGAGKTFALRALKESLNPSLYHVVYFPLSTGGVMDFYRGLALGLGEEPKYRKVDLFRQIQQAIERLHHERRITPVFILDEMHLAKDAFLQDIAILFNFEMDSTNPFVLILAGLPHLQGKLRLNQHRPLDQRIIMRYRMGPMEKEEVAGYIEHRMKQAGAKHPIFTPSALEAIALQSRGWPRVINTLATTCLLYGHQLKKDVIDEEVVRMAAEEMGY", "soluble on expression in E. coli": "not soluble"}
{"sequence": "MKVGGIEDRQLEALKRAALKACELSYSPYSHFRVGCSILTNNDVIFTGANVENASYSNCICAERSAMIQVLMAGHRSGWKCMVICGDSEDQCVSPCGVCRQFINEFVVKDFPIVMLNSTGSRSKVMTMGELLPMAFGPSHLN", "soluble on expression in E. coli": "soluble"}
{"sequence": "MPEGFDAYCICTGTPTARDLSIPGRELKGIHFALEMLAQQNRILEGQTFPKDKLVNAKGKKVLVIGGGDTGSDCIGTSVRQGATSVTQIEIMPKPPVGHNPSTPWPQWPVVFKTTSSHEEGCTRRWCLTSNQFLGKNGKVTGVEVEEVEWTPATDGGRPTMNLTGKKEVIEADMVLLAMGFLKPEQPKFAENVFLAGDAATGASLVVRAMAGGRKAAADIDHYLEHHHHHH", "soluble on expression in E. coli": "not soluble"}
{"sequence": "KSIYLQSPYFIPDQSYINALKMAANSGVEVNLMIPCKPDHPFVYWATFSNAADLLDSGVNIYTYQNGFIHSKILMIDDEISSIGSANMDFRSFELNFEVNAFIYDEDIAKQLRQAFEKDIEQSKLLTKEVYDKR", "soluble on expression in E. coli": "not soluble"}
{"sequence": "MSLKAVTQCSQFFHEVSLPHLKPETTYYYRIPAANGTTESDILSFTTARAPGDKRSFTVAVLNDMGYTNAQGTHRQLLKAANEGAAFAWHGGDLSYADDWFSGILPCADDWPVCYNGTSTQLPGGGPIPEEYKQPLPQGETANQGGPQGGDMSVLYESNWDLWQQWMTNLTVKIPHMVMPGNHESACAEFDGPGNPITAYLNEGIPNGTWPAENLTYYSCPPSQRNFTAFQHRFHMPGKETGGVGNFWYSFDYGLAHFVSLDGETDFANSPFSTFERDLTGNETHPRPEETETTDSGPFGTIDGDRYDDNTAYAQYQWLKRDLASVDRTKTPWVFVMSHRPMYSSAYSSYQTNVRNAFENLLLQYGVDAYLSGHIHWYERMFPMTANGTIDESSIADNHTYTTNSGKSMTHIINGMAGNIESHSWFDEGEGLTEITAKLDRTHFGFSKLTVVNETVVNWEFVKGDDGSTGDWLTLVKGETCTINEGHHHHHH", "soluble on expression in E. coli": "not soluble"}
{"sequence": "MVSEIVVDVGINEKRVALLEDRELVELFIERNDCERLVGNIYRGRVESVLPGMQAAFIDIGYEKNAFLYVGDAIPQKEFSEDDEEIYSDVKSYNIEEILRPGQEITVQVTKEPIGTKGPRVTTHITLPGRQMVLLPNADYIGISRRIEDEEERAKLRKIAEKIKPKNMGIIVRTVSEGKREEDFKSDLNFLVKLWAKIKQREQSGPVPRCLHKDLSVIYRAVRDIFTWNIDRFVINDRQEYNKVLELVEMISPALKMRVEYFNKNIDLFEYYQIDSMIQKALAKKVWLKCGGYIVIERTEALTVIDVNTGKYVGVNNLEDTVLRTNLDAVKEIGKQLRLRDIGGIIIIDFIDMHDPEHQKQVLEALKQVLKKDRTKTTVVGMTGLGLIEMTRKKVREGLESMMLQDCPYCEGRGKILSPESVARNVEKEISKYFTKTIANAIMVEVHPTVAEVLRGEDNDNLARIQNLFNKKVIIKPSAEVGHEEVKGSCKIKCRNI", "soluble on expression in E. coli": "not soluble"}
{"sequence": "MTIDLNAMLAKRAEVLGEGNKFDVKLGNKTFYFVAPELASSEWNDRHQAFLEDIRDGLMTSATAREEFLGLALEDQAEEFAEAADNIGVDPFIIAQMAFQEHAEYVGKTQSQKSLNRTQRRAKQR", "soluble on expression in E. coli": "not soluble"}
{"sequence": "MGQERLDNANPTLFDSKPRHRPVTGTERDESVEDPIDSWEIFDLIRDINDPEHPYTLEQLNVVQEELIKVFIDEEETFVKVNFTPTIPHCSMATLIGLAIRVKLLRSLHPKVKVSVSITPGSHSTEESINRQLADKERVAAAMENQGLMHAVNECLRVPE", "soluble on expression in E. coli": "not soluble"}
{"sequence": "MSQQGLERRLLAGLQGLGLTINQAQRAVKHFGADALDRLEKDLFTLTEVEGIGFLTADKLWQARGGALDDPRRLTAAAVYALQLAGTQAGHSFLPRSRAEKGVVHYTRVTPGQARLAVETAVELGRLSEDDSPLFAAEAAATGEGRIYLPHVLRAEKKLASLIRTLLATPPADGAGNDDWAVPKKARKGLSEEQASVLDQLAGHRLVVLTGGPGTGKSTTTKAVADLAESLGLEVGLCAPTGKAARRLGEVTGRTASTVHRLLGYGPQGFRHNHLEPAPYDLLIVDEVSMMGDALMLSLLAAVPPGARVLLVGDTDQLPPVDAGLPLLALAQAAPTIKLTQVYRQAAKNPIIQAAHGLLHGEAPAWGDKRLNLTEIEPDGGARRVALMVRELGGPGAVQVLTPMRKGPLGMDHLNYHLQALFNPGEGGVRIAEGEARPGDTVVQTKNDYNNEIFNGTLGMVLKAEGARLTVDFDGNVVELTGAELFNLQLGYALTVHRAQGSEWGTVLGVLHEAHMPMLSRNLVYTALTRARDRFFSAGSASAWQIAAARQREARNTALLERIRAHLEHHHHHH", "soluble on expression in E. coli": "soluble"}
{"sequence": "MASLSQTPPDLPLCRGDRVRMSPLGRERHPRYGTREGVIVGQGSPSSWRVKFDDRKTIQAIHQDYLERVPAQAARFDSSEIWNGWRNDPPATA", "soluble on expression in E. coli": "not soluble"}
{"sequence": "MKSIGTQILQTERLILRRFVESDAEAMFQNWASSAENLTYVTWDPHPDVEITRNSICNWVASYTNLNYYKWAICLKENPEQVIGDISIVKIDEADLSCEIGYVLGKAYWGNGMMTETLKAILDFCFTQAGFQKVRARYASLNPASGRVMEKAGMSYLQTIVNGVERKGYLADLIYYGISREEC", "soluble on expression in E. coli": "not soluble"}
{"sequence": "GPGSMGAVKFQLYKTLGVPMKSSIKDITRAYRHLALKYHPDRNPEGVEKFKSISNAYAVLSDPERRAAYDLTGFLSDSADSSHAMSDEAARQQRSAELADQVRTFFATYAGSAEERLDVVRGYEKCRGDFKKMVREYLLFDNGVEAEVQRLHRLVSTLIELGNLSPTPAWKSTSTPEALLRLEKAMHRERQEAENVLKDMAGSGTGAAGAADGDLSSLQVMIRQRQQSSYESMLNHLESKYVTKKSNARESSKRTREAAPTARKDECASKKHRKASHHR", "soluble on expression in E. coli": "soluble"}
{"sequence": "MSTVVSEGRNDGNNRYSPQDEVEDRLPDVVDNRLTENMRVPSFERLPSPTPRYFGSCKWFNVSKGYGFVIDDITGEDLFVHQSNLNMQGFRSLDEGERVSYYIQERSNGKGREAYAVSGEVEGQGLKGSRIHPLGRKKAVSLRCFRCGKFATHKAKSCPNVKTDAKVCYTCGSEEHVSSICPERRRKHRPEQVAAEEAEAARMAAEKSSPTTSDDDIREKNSNSSDE", "soluble on expression in E. coli": "not soluble"}
{"sequence": "MVLSVADAKKLTVPRLKEELASRGLDNTGNKPELLARLTESIEQAADELLGDAGITSDTHLLSDDILNDDILDAPSVGDESEADKLLGSVDGAEEHKTDKSEGEEKHEVHLIDKKIDEVTAETDKRARAIRFGLPVTAEDLGSDGAKAARAKRFDLPEDSKRLTSNDAKASRAERFGITPKTPAADDKLAARAARFGIPVGGAASASASKNAPNSEGKAAKLAARAKRFGGEIDDEEMEAKKKARMERFGTSN", "soluble on expression in E. coli": "not soluble"}
{"sequence": "MDLKQYITIVPDFPKPGIMFKDITTLMDNGPAYKYATDQIVQYAREKQIEIVVGPEARGFIIGCPVAYALGVGFAPVRKEGKLPREVVRVEYGLEYGTDVLTMHKDAIKPGQRVLITDDLLATGGTMRATIDLVEQLGGVVAGLAFLIELTELGGRKKLEGYDILTLMQF", "soluble on expression in E. coli": "soluble"}
{"sequence": "GPGSMLVPGYGSHLLRFGSTWVYITRAEDPSKQKAAAANRVDRENDKLTLTFFTRRRAVVQQFMKHVQESWRANVRNTVHIYLSEGYGPRWHLLSERIRRPLSTLYLPADTKAVVEEARLFLRLKDTYAALGIPWRRGYLLEGPPGTGKTSFVMALAGELGLPVHILSLRSANMDDDALLSLTSSLPRRSILLIEDLENVLKTPPGAGRSALSSGASDTAAVAAAETSAASPASPYSTDIGGGPRSAMSLSALLNALDGVSSSEGRLLLITTNDTSRIPFAEVLLRPGRVDRRIRFQPLHVEQLREMEASFQQALQASPCSAVENPRLPSARPSAHEDDRSVACTPAQYQQRLLDAVYASLTSRPRAESK", "soluble on expression in E. coli": "not soluble"}
{"sequence": "MKETDLAFFRSFKNRILKEINVMQLCRVVTVKGARADVQPMALKSDGGKRALILNALITKHCQSDISQGAVVVVVFCDRDIDNYRSSADYSLSSDRMHSQNDAVIMGVIA", "soluble on expression in E. coli": "not soluble"}
